The target of this assay is toxin B (TcdB) from Clostridioides difficile VPI 10,463 (Clostridioides difficile VPI 10,463, UniProt P18177 1-2366). Put plainly: co-sedimentation; in vitro precipitation assay: TcdB (50 ng, 2 ng/µl) with α-defensin-6 (6 µM) or Angie peptides (100 µM) in 25 µl PBS, 30 min at 37 °C; centrifuged 20 min, 14,000 rpm, 4 °C; supernatant and pellet immunoblotted for TcdB. As to conditions: both partners purified.

Here are results for 1 molecule from PMC12209146 (Cellular and Molecular Life Sciences: CMLS, 2025).

Sequence of toxin B (TcdB) from Clostridioides difficile VPI 10,463 (P18177 whole entry): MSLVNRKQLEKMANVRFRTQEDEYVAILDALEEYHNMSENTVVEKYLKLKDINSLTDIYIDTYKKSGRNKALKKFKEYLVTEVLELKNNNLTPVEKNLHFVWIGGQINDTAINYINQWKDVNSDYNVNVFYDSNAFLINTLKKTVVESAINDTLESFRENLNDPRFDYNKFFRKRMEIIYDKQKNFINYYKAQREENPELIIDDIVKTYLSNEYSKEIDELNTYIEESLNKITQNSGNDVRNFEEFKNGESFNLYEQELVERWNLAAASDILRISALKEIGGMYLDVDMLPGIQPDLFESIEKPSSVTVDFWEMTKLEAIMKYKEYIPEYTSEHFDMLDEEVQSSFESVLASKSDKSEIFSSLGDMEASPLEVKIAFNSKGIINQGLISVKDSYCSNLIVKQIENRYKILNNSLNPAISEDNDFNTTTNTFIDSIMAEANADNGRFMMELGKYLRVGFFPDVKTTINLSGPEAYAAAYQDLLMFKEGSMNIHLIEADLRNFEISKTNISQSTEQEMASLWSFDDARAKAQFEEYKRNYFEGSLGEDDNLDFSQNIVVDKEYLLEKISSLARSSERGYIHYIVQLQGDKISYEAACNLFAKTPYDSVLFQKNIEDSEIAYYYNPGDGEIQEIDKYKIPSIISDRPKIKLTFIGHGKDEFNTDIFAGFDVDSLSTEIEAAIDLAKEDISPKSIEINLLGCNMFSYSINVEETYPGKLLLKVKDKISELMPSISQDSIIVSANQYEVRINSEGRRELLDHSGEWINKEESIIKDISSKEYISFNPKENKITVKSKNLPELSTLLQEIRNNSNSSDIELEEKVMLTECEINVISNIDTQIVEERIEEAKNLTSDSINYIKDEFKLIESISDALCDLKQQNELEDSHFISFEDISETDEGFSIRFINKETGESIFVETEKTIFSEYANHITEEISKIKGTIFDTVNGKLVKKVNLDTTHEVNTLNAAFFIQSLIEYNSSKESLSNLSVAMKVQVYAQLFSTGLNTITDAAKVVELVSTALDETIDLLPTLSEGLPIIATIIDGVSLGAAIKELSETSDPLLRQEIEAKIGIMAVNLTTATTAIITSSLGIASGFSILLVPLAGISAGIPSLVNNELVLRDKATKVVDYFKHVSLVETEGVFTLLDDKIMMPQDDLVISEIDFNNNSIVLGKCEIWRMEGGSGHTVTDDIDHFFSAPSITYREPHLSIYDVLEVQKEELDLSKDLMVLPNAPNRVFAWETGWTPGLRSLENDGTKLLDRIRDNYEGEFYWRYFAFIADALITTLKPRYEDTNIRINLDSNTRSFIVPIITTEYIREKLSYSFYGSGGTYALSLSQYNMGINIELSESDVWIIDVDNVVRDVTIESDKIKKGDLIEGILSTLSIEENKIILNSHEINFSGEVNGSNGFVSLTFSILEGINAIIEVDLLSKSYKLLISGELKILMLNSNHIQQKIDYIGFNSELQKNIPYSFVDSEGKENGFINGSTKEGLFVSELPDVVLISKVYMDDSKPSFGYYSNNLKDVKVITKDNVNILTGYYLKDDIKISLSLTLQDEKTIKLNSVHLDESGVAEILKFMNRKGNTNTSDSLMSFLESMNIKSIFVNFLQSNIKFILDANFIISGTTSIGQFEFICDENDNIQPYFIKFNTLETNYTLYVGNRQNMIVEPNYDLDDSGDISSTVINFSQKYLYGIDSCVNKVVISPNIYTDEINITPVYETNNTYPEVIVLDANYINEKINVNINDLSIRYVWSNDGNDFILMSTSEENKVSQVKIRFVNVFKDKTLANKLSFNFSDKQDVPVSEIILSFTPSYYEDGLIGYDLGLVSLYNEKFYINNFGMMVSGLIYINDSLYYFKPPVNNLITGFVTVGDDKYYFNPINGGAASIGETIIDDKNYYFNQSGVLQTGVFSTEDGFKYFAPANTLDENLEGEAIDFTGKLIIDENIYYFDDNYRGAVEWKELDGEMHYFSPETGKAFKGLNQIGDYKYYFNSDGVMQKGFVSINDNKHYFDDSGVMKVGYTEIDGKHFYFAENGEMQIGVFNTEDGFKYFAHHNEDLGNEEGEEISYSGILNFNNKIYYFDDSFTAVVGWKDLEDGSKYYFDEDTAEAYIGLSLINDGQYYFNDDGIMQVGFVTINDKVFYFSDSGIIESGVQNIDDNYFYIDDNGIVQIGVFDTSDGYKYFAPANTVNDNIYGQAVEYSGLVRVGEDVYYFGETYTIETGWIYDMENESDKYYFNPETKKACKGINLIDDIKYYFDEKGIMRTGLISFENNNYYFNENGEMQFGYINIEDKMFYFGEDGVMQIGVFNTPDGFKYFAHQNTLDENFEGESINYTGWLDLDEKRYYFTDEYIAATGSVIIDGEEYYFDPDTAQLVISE

Consider AFTCHCRRSCYSTEYSYGTCTVMGINHRFCCL (peptide, UniProt Q01524 69-100, looked up) [human peptide α-defensin-6], for which the binding result was “binds”.
